Data taken from US7176293.

Tests used:
[1] = biological target: E2 ubiquitin-conjugating enzyme Ubch8, O14933
[2] = biological target: E2 ubiquitin-conjugating enzyme UbchD2, P62837
Sequence of E2 ubiquitin-conjugating enzyme UbchD2, P62837 (P62837 whole entry, looked up): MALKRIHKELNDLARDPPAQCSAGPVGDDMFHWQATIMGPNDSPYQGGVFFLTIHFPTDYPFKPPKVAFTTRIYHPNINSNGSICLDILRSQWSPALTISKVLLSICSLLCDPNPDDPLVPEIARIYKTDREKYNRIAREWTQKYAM

Sequence of E2 ubiquitin-conjugating enzyme Ubch8, O14933 (O14933 whole entry): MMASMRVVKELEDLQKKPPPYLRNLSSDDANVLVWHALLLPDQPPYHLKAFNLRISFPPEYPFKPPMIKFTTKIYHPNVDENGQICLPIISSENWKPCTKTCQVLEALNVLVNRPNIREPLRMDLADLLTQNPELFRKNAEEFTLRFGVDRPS

B1: GST-Chfr (glutathione S-transferase fused to the N-terminus of full-length human Chfr) (protein)
chain: MERPEEGKQSPPPQPWGRLLRLGAEEGEPHVLLRKREWTIGRRRGCDLSFPSNKLVSGDHCRIVVDEKSGQVTLEDTSTSGTVINKLKVVKKQTCPLQTGDVIYLVYRKNEPEHNVAYLYESLSEKQGMTQESFEANKENVFHGTKDTSGAGAGRGADPRVPPSSPATQVCFEEPQPSTSTSDLFPTASASSTEPSPAGRERSSSCGSGGGGISPKGSGPSVASDEVSSFASALPDRKTASFSSLEPQDQEDLEPVKKKMRGDGDLDLNGQLLVAQPRRNAQTVHEDVRAAAGKPDKMEETLTCIICQDLLHDCVSLQPCMHTFCAACYSGWMERSSLCPTCRCPVERICKNHILNNLVEAYLIQHPDKSRSEEDVQSMDARNKITQDMLQPKVRRSFSDEEGSSEDLLELSDVDSESSDISQPYVVCRQCPEYRRQAAQPPHCPAPEGEPGAPQALGDAPSTSVSLTTAVQDYVCPLQGSHALCTCCFQPMPDRRAEREQDPRVAPQQCAVCLQPFCHLYWGCTRTGCYGCLAPFCELNLGDKCLDGVLNNNSYESDILKNYLATRGLTWKNMLTESLVALQRGVFLLSDYRVTGDTVLCYCCGLRSFRELTYQYRQNIPASELPVAVTSRPDCYWGRNCRTQVKAHHAMKFNHICEQTRFKN
For B1, the “ubiquitin-protein ligase activity in vitro (ubiquitination of GST-Chfr, anti-ubiquitin immunoblot)” value [1] was “did not function in this assay” and the “ubiquitin-protein ligase activity in vitro (ubiquitination of GST-Chfr, anti-ubiquitin immunoblot)” value [2] was “supported the ubiquitin-protein ligase activity of Chfr”.
